Substrate: CC(=O)N[C@H]1[C@@H](OP(=O)(O)OP(=O)(O)OC[C@H]2O[C@@H](n3ccc(=O)[nH]c3=O)[C@H](O)[C@@H]2O)O[C@H](CO)[C@@H](O)[C@@H]1O
Assay: MurA activity/inhibition assay (phosphate release coupled to PNPase cleavage of fluorescent 7-methylguanosine)
Format: biochemical, E. coli
Details: other: 0.5 µM MurA, 1 mM phosphoenolpyruvate; best fit parameter of global fit; same as reported in literature; pH 7.5
Text: • (a) MurA performs the first step of UDP-muramic acid biosynthesis. After sequential binding of UNAG and phosphoenolpyruvate, a tetrahedral intermediate is formed that yields enolpyruvyl-UNAG after cleavage of inorganic phosphate. UNAG-3P most likely mimics this tetrahedral intermediate and thereby inhibits MurA catalysis by a competitive binding mechanism. (b) Determination of the Ki of UNAG-3P for MurA. Enolpyruvyl-UNAG formation catalyzed by MurA from E. coli in presence of PEP and UNAG-3P and varying UNAG concentrations under steady state conditions. MurA enzyme kinetics were followed by coupling the reaction to phosphate dependent cleavage of fluorescent 7-methylguanosine by nucleoside phosphorylase resulting in a strong decrease of the fluorescence at 400 nm (λexc = 300 nm). The UNAG-3P concentrations for each saturation curve were 0 µM (●), 15 µM (□) and 30 µM (Δ). A Lineweaver-Burk plot is shown as inset.
The enolpyruvyl activity of E. coli MurA was monitored by coupling phosphate release to cleavage of fluorescent 7-methylguanosine (Sigma) by bacterial purine-nucleoside phosphorylase (PNPase) (Sigma). […] The reactions were monitored by the decrease in fluorescence at 400 nm with excitation set to 300 nm in a FluoroMax-3 spectrofluorometer (HORIBA Jobin Yvon) with excitation and emission bandwidths of 5 nm. […]

B1: E. coli MurA (Escherichia coli K-12) (protein)
chain: MDKFRVQGPTKLQGEVTISGAKNAALPILFAALLAEEPVEIQNVPKLKDVDTSMKLLSQLGAKVERNGSVHIDARDVNVFCAPYDLVKTMRASIWALGPLVARFGQGQVSLPGGCTIGARPVDLHISGLEQLGATIKLEEGYVKASVDGRLKGAHIVMDKVSVGATVTIMCAATLAEGTTIIENAAREPEIVDTANFLITLGAKISGQGTDRIVIEGVERLGGGVYRVLPDRIETGTFLVAAAISRGKIICRNAQPDTLDAVLAKLRDAGADIEVGEDWISLDMHGKRPKAVNVRTAPHPAFPTDMQAQFTLLNLVAEGTGFITETVFENRFMHVPELSRMGAHAEIESNTVICHGVEKLSGAQVMATDLRASASLVLAGCIAEGTTVVDRIYHIDRGYERIEDKLRALGANIERVKGE
B1 showed a Km of 15 µM.

Source: EP2433948A1, “Use of a new class of nucleotide sugar as antibiotic or cytostatic agent” (Max-Planck-Gesellschaft zur Förderung der Wissenschaften …, priority 2010, dated 2012)
